Data published in US20220235344A1, “TRYPSIN VARIANTS WITH IMPROVED ENZYMATIC PROPERTIES” (BIOPHARMA TRANSLATIONSINSTITUT DESSAU FORSCHUNGS GMBH, priority 2018, published 2022).

Tested on: anti-Her2-Fab-LC_RRKHAK(CF)/HC_YRAH (YRAH at heavy chain)
Experiment: Orthogonal dual-modification of Her2-specific Fab-fragment, second step (heavy chain, DM1)
Assay type: biochemical
From the text: FIG. 6: Dual modification of a Fab-fragment by utilizing variation in substrate specificity of two Trypsiligase II variants. The HER2-specific Fab-fragment of Trastuzumab (anti-Her2-Fab-LC_RRKH/HC_YRAH, Heavy chain (SEQ ID NO: 2) and anti-Her2-Fab-LC_RRKH/HC_YRAH, Light chain (SEQ ID NO: 3)) was used and the respective recognition sequences genetically introduced. A) Trypsiligase II variant K7F11_H39Y/H59Y/K189D which recognizes the sequence RRKH was used in the first step for attachment of a carboxyfluorescein(CF)-bearing nucleophile. B) In the second step Trypsiligase II variant A2C8 which recognizes the sequence YRAH was used for modification with a nucleophile covalently bound to mertansine (DM1). Analysis by LC-MS. The amount of modified and unmodified Fab-fragment species for the first and second modification step are shown in MS spectrum A and B, respectively. […]
The second modification reaction of the heavy chain was performed in a solution containing 50 μM of the single modified aHer2-Fab-LC_RRKHAK(CF)/HC_YRAH, 1000 μM H-RKKAK(MCC-DM1)-OH, 5 μM A2C8, 100 mM HEPES/NaOH pH 7.8, 100 mM NaCl. […] The proportions of modified and unmodified Fab-fragment species for the first and second modification step were analyzed by LC-MS (see example 1). […] No modification upon the recognition sequence at the heavy chain had been monitored.

B1: A2C8: Trypsiligase II + H40F, A55A, R96E, K97D, L99F, N143E, E151Y, S190V, Q192A, S214G, G219Q, A221T (protein)
chain: IVGGYTCQENSVPYQVSLNSGHFFCGGSLINDQWVVSAAHCHESRIQVRLGEHNINVLEGNEQFVNAAKIIKHPNFDEDTFNNDIMLIKLSSPVKLNARVATVALPSSCAPAGTQCLISGWGETLSSGVNYPDLLQCLDAPLLPQADCEASYPGKITDNMVCVGFLEGGKKVCAGDSGGPVVCNGELQGIVGWGYQCTLPDNPGVYTKVCNYVDWIQDTIAAN
With B1 the “yield of dual labeled Fab-fragment” value (estimated by mass spectrometry) was “approximately 75%” and the “site of modification, second step” value (mass spectrometry) was “exclusively modification at the C-terminal end of the heavy chain”.
